Here are results for three molecules from paper PMC11514458.

The target of one series is T1, DX2 complex (human, UniProt O75771;O43543 1-328;1-280).
T1 sequence 1: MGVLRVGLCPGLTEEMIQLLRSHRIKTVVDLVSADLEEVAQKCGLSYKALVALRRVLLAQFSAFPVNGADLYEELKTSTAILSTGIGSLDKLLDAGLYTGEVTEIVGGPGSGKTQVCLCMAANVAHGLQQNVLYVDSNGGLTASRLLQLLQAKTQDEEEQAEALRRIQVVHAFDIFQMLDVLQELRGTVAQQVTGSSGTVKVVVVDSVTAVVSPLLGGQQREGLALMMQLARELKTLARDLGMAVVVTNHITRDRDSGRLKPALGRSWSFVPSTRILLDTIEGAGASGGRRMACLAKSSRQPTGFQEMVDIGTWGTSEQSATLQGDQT
T1 sequence 2: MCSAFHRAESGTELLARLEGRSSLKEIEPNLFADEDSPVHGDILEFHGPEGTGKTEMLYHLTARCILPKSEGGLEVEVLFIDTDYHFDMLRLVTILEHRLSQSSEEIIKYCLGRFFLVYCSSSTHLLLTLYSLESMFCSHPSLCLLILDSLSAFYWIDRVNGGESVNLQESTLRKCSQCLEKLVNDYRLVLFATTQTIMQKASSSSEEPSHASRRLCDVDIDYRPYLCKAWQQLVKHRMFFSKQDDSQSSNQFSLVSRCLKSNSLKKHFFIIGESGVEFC
In words: EMSA; EMSA: 20 mM Tris-HCl pH 7.5, 2 mM MgCl2, 2 mM ATP, 37 C, 20 nM DNA, glutaraldehyde fixation; stopped-flow: 25 mM Tris-HCl pH 7.5, 5 mM MgCl2, 50 mM KCl, 2 mM ATP, 0.5 mM EDTA, 10% glycerol, 37 C; BLI: 50 mM Tris-HCl pH 7.5, 2 mM ATP, 50 mM KCl, 5 mM MgCl2, 0.05% Tween 20, room temperature. Particulars: protein: recombinant; tags: His-tag; copies: 1;1; label: 3' FITC.

Another series has as its target T2, BC complex (human, UniProt O15315;O43502 1-384;1-376).
T2 sequence 1: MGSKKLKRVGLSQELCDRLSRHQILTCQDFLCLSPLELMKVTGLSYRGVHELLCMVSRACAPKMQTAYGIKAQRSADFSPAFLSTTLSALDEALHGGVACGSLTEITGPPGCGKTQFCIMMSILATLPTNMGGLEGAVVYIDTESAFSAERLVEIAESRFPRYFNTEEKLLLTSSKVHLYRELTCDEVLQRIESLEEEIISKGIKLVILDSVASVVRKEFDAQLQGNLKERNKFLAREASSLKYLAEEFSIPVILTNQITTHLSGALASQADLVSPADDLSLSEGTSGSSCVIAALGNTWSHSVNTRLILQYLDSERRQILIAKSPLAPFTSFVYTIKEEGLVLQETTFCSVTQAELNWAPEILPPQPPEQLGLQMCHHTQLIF
T2 sequence 2: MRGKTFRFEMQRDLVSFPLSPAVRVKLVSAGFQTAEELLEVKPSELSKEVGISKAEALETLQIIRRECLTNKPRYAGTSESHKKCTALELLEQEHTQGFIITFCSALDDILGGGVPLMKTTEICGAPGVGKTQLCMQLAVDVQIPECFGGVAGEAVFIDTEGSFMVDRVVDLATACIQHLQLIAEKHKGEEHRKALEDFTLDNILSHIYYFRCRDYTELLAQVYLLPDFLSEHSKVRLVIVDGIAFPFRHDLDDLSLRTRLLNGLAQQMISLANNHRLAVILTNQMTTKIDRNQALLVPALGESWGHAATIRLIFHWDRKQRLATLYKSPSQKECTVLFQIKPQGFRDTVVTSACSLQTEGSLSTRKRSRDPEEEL
The series is described as above. Conditions: protein: recombinant; tags: Strep-tag; copies: 1;1; label: 3' FITC.

Series [1] concerns the target T3, BCDX2 complex (human, UniProt O15315;O43502;O75771;O43543 1-384;1-376;1-328;1-280).
T3 sequence 1: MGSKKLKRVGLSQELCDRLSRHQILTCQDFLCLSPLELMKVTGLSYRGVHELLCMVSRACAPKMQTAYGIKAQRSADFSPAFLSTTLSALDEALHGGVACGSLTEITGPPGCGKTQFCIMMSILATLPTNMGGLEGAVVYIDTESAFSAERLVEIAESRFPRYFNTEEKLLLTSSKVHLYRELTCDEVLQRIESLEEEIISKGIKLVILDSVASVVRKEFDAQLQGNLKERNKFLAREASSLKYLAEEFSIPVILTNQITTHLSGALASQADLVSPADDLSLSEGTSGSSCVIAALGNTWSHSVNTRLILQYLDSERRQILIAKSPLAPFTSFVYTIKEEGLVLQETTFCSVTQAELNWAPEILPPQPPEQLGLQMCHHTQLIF
T3 sequence 2: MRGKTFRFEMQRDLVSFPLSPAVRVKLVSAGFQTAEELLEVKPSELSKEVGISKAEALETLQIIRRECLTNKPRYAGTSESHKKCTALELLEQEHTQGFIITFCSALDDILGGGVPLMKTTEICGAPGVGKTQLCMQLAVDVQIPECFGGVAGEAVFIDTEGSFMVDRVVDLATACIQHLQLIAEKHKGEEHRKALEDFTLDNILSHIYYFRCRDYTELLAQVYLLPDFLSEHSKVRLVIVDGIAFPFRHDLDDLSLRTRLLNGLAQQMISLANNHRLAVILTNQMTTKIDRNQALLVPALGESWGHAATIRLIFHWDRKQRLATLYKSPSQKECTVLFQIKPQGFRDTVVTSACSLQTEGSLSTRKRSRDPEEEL
T3 sequence 3: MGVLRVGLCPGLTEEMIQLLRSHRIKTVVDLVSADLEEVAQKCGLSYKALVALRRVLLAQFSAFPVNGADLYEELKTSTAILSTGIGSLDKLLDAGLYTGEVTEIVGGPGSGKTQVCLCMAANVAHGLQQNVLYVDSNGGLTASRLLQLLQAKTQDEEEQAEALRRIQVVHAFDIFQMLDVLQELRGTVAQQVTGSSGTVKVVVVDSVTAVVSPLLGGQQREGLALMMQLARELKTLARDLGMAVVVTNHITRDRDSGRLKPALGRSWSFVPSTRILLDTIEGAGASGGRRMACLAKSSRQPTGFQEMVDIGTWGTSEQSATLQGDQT
T3 sequence 4: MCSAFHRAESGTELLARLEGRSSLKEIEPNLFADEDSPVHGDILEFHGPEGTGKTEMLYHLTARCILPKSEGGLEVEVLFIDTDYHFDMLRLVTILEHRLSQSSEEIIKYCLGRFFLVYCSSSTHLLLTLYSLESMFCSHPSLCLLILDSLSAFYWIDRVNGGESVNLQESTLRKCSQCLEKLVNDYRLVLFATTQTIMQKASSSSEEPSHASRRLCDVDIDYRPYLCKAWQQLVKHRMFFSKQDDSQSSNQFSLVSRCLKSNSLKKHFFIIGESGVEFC
The series can be described thus: EMSA; ATP, Mg2+; EMSA: 20 mM Tris-HCl pH 7.5, 2 mM MgCl2, 2 mM ATP, 37 C, 20 nM DNA, glutaraldehyde fixation; stopped-flow: 25 mM Tris-HCl pH 7.5, 5 mM MgCl2, 50 mM KCl, 2 mM ATP, 0.5 mM EDTA, 10% glycerol, 37 C; BLI: 50 mM Tris-HCl pH 7.5, 2 mM ATP, 50 mM KCl, 5 mM MgCl2, 0.05% Tween 20, room temperature. Conditions: protein: recombinant; tags: Strep-tag and His-tag (XRCC2 N-terminal His); copies: 1;1;1;1; label: 3' FITC.

The target in series [2] is T3, BCDX2 complex. In words: EMSA; stronger than ssDNA; EMSA: 20 mM Tris-HCl pH 7.5, 2 mM MgCl2, 2 mM ATP, 37 C, 20 nM DNA, glutaraldehyde fixation; stopped-flow: 25 mM Tris-HCl pH 7.5, 5 mM MgCl2, 50 mM KCl, 2 mM ATP, 0.5 mM EDTA, 10% glycerol, 37 C; BLI: 50 mM Tris-HCl pH 7.5, 2 mM ATP, 50 mM KCl, 5 mM MgCl2, 0.05% Tween 20, room temperature. Particulars: protein: recombinant, tags: Strep-tag and His-tag (XRCC2 N-terminal His), copies: 1;1;1;1. In general terms: A gel shift assay detects complexes by their altered migration in electrophoresis.

B1: ssDNA 49mer (ssDNA)
DNA: AGCTACCATGCCTGCACGAATTAAGCAATTCGTAATCATGGTCATAGCT
B1: the binding result with DX2 complex is given as “no binding”; with BC complex, “no binding”; with BCDX2 complex [1] it was “binds”.

B2: Y-form (mixed)
DNA 1: AGCTACCATGCCTGCACGAATTAAGCAATTCGTAATCATGGTCATAGCT
DNA 2: AGCTATGACCATGATTACGAATTGCTTGGAATCCTGACGAACTGTAG
For the molecule B2, the binding result in the series with BCDX2 complex [2] (label: 3' FITC on strand 1, fork 1:2) was “binds”.

B3: 3' flap (mixed)
DNA 1: AGCTACCATGCCTGCACGAATTAAGCAATTCGTAATCATGGTCATAGCT
DNA 2: AGCTATGACCATGATTACGAATTGCTTGGAATCCTGACGAACTGTAG
DNA 3: AATTCGTGCAGGCATGGTAGCT
B3: the binding result in the series with BCDX2 complex [2] (label: 5' FITC on strand 1, flap 1:2 1:3) is reported as “binds”.
